Assay results: US20240293565A1 (BEIJING SINOTAU BIO PHARMACEUTICALS TECHNOLOGY, published 2024)
Blank lines part the entries; values can stand above or below the binder they belong to.

What was measured:
[1] = target: T1, human HER3 on the cell surface (human, UniProt P21860 20-1342); test: cell-based or functional assay
[2] = target: T1, human HER3 on the cell surface; test: flow cytometry on SP2/0-HER3 cells
Procedure: ch3F8-MMAE maintains the similar binding affinity to ch3F8. ch3F8-MMAE binding affinity with HER3 was measured with SP2/0-HER3 by FACS.

T1 sequence (P21860 20-1342): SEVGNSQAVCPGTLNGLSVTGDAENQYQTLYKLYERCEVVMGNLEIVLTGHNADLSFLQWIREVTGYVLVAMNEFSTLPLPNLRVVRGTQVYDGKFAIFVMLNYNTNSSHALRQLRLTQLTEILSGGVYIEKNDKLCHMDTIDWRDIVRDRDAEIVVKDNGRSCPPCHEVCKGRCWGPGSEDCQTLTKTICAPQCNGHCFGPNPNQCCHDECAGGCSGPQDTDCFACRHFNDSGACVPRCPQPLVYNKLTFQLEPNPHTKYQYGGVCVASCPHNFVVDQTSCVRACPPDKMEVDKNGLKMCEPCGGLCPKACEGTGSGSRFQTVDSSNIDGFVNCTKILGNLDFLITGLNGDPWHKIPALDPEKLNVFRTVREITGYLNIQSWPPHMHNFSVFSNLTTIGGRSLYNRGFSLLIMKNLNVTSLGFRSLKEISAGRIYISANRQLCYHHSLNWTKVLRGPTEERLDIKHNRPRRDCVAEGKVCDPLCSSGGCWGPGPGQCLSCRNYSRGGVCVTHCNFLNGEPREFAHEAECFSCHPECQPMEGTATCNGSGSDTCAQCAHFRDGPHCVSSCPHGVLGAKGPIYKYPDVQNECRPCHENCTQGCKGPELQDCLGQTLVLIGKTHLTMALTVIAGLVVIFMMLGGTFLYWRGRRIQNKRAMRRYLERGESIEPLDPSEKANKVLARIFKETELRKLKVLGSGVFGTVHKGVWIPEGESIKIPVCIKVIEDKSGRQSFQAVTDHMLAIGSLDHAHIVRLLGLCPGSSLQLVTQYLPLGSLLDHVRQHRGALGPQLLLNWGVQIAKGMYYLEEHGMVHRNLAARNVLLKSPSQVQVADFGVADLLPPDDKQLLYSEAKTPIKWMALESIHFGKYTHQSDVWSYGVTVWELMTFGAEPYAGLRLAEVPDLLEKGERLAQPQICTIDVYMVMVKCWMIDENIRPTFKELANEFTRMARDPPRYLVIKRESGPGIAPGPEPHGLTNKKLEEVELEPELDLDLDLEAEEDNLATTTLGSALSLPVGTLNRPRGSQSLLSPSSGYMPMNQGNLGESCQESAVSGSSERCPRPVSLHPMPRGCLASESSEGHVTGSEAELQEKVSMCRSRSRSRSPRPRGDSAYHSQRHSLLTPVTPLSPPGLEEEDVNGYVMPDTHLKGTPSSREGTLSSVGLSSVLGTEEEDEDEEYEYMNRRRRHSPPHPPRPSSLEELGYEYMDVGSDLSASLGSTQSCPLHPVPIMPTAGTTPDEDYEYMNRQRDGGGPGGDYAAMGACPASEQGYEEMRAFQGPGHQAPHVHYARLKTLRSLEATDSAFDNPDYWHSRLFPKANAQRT

B1: ch3F8-MMAE (antibody, V domains shown)
VH: DVQLQESGPGLVKPSQSLSLTCSVTGYSITSAYYWNWIRQFPGDKLEWMGYISYDGRNNFNPSLKNRISITRDTSKNQFFLKLNSVTSGDTATYYCARDGDYDYFDYWGQGTTLTVSS
VL: DIQMTQTTSSLSASLGDRVTISCRASQDISNYLNWYQQKPDGTFKLLIYYTSILHSGVPSRFSGSGSGTDYSLTISNLEQEDIATYFCQQGDTLPPTFGAGTKLELK
modifications: MC-VC-MMAE conjugated to cysteine residues of the antibody after reduction of disulfide bonds (positions not stated), DAR around 3.8
cytotoxicity IC50 (nM), ATPlite, 7901 cells [1]: 5.74 nM
cytotoxicity IC50 (nM), ATPlite, HT-29 cells [1]: 4.67 nM
cytotoxicity IC50 (nM), ATPlite, MCF-7 cells [1]: 9.49 nM
cytotoxicity IC50 (nM), ATPlite, MDA-MB-453 cells [1]: 0.0401 nM
cytotoxicity IC50 (nM), ATPlite, N87 cells [1]: 1.91 nM
cytotoxicity IC50 (nM), ATPlite, SK-BR-3 cells [1]: 0.159 nM
cytotoxicity IC50 (nM), ATPlite, SP2/0-HER3 cells [1]: 0.486 nM

EC50 (read off the curve) [2]: ~0.08 µg/mL
B2: chimeric 3F8 (antibody, human IgG1, V domains shown)
VH: DVQLQESGPGLVKPSQSLSLTCSVTGYSITSAYYWNWIRQFPGDKLEWMGYISYDGRNNFNPSLKNRISITRDTSKNQFFLKLNSVTSGDTATYYCARDGDYDYFDYWGQGTTLTVSS
VL: DIQMTQTTSSLSASLGDRVTISCRASQDISNYLNWYQQKPDGTFKLLIYYTSILHSGVPSRFSGSGSGTDYSLTISNLEQEDIATYFCQQGDTLPPTFGAGTKLELK
notes: also called ch3F8; Ch3F8
